18 sequences from the supplement of paper PMC12764529 can be followed below.

± gives the half width of the 95% confidence interval.

Data set [1] is described as follows: folding stability dG unfold (combined trypsin and chymotrypsin); higher = more stable. The gist of the method:
(§1)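 Designed mini-proteins (under 80 residues, no cysteine) in a PA-tagged cDNA display construct were digested with trypsin and chymotrypsin. Each protease was used at 11 concentrations (threefold dilutions) plus a no-protease condition, followed by sequencing. K50 was inferred by Bayesian fitting of sequencing counts, and unfolding free energy was derived against a sequence-predicted unfolded-state K50 and a shared folded-state K50, per protease or combined. Only designs with AlphaFold2 dimer inter-PAE above 15 were kept.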

Data set [2] is described as follows: folding stability dG unfold from chymotrypsin proteolysis; higher = more stable. A digest of the protocol: as §1
Data set [3] can be described thus: folding stability dG unfold from trypsin proteolysis; higher = more stable. A digest of the protocol: as §1

Turning to “SAGGSAGGSMTKTITTKTEEEAESEARRLLKEEGVPEGVEPTPITLESVDPEKGLYTFTVELESAGGSAGGS [r12_999_JUSTAS]”, the results for the “folding stability dG unfold” value in data set [1], in data set [2] and in data set [3] were 0.379 ± 0.076 kcal/mol, 0.395 ± 0.099 kcal/mol and 0.2 ± 0.062 kcal/mol, respectively.

On to “SAGGSAGGSMTLIGTTTLPSPDGSLVTVDTYKVPGSDELVAKVTTLNGTTWTTETRPLSEFLKSAGGSAGGS [r12_1063_JUSTAS]”, for which the “folding stability dG unfold” value was determined as 0.646 ± 0.1 kcal/mol in data set [1], 0.913 ± 0.14 kcal/mol in data set [2] and 0.188 ± 0.081 kcal/mol in data set [3].

As for “SAGGSAGGSMTLKVTLPNGKVIELPLPEELENIPAETIAKLLGEENVRLELYSPDGVPYDFGASAGGSAGGS [r12_411_TrMRF]”, the results for the “folding stability dG unfold” value in data set [1], in data set [2] and in data set [3] were 1.03 ± 0.099 kcal/mol, 0.726 ± 0.09 kcal/mol and 1.18 ± 0.029 kcal/mol, respectively.

With “SAGGSAGGSMTLVLEVDSVEDALAAVEALLPPGYRVTIEVEERGGRLLVTITIEPAPAPPPEESAGGSAGGS [r12_195_TrROS_Hall]”, the “folding stability dG unfold” value in data set [1] amounted to 3.16 ± 0.071 kcal/mol; in data set [2], 3.51 ± 0.075 kcal/mol; in data set [3], 1.92 ± 0.083 kcal/mol.

As for “SAGGSAGGSMTRTITLSKEELKKKYPNATLEEIAKDIIEKEPGVKEVTVEEFPGTVKITVTKLSAGGSAGGS [r12_590_JUSTAS]”, the “folding stability dG unfold” value in data set [1] was 2.57 ± 0.18 kcal/mol; in data set [2] it was 2.84 ± 0.058 kcal/mol; in data set [3] it was 2 ± 0.086 kcal/mol.

Consider “SAGGSAGGSMTVERNVTSEEEAEEWREEIEKELGVKVEEVIREETEEGDLRVKFVIEIPEDLKSAGGSAGGS [r12_577_JUSTAS]”, for which the “folding stability dG unfold” value in data set [1] was 0.0537 ± 0.18 kcal/mol; in data set [2], -0.367 ± 0.2 kcal/mol; in data set [3], 0.37 ± 0.069 kcal/mol.

For “SAGGSAGGSMTVETTPLATSRDPESDNTVTLTRTTVTFPDGTVRTETWTVTTAPDGTTTTTVSSAGGSAGGS [r12_250_JUSTAS]”, the figures for the “folding stability dG unfold” value in data set [1], in data set [2] and in data set [3] were 0.999 ± 0.049 kcal/mol, 1.35 ± 0.033 kcal/mol and 0.00376 ± 0.037 kcal/mol, respectively.

Turning to “SAGGSAGGSMTVTVRRVYFPPNLAEGMTVEELRKKLGVPDLPVLVVDVEVTLTPEELEALLKESAGGSAGGS [r12_178_TrMRF]”, the entries for the “folding stability dG unfold” value in data set [1], in data set [2] and in data set [3] were 1.97 ± 0.05 kcal/mol, 2.21 ± 0.036 kcal/mol and 1.39 ± 0.041 kcal/mol, respectively.

Turning to “SAGGSAGGSMVEITFPPDLSEEEAEALAKELEEKYNKKVKITKVPPEIPVPLPQYDPTNWVEVSAGGSAGGS [r12_159_JUSTAS]”, the “folding stability dG unfold” value in data set [1] was -0.108 ± 0.2 kcal/mol; in data set [2], -0.0306 ± 0.11 kcal/mol; in data set [3], -0.0502 ± 0.06 kcal/mol.

“SAGGSAGGSMVFESTSVYTFPEQNTVVVTKTTTTVTKTPDGSSSVSTSTTTTVLTVPPPEPLVSAGGSAGGS [r12_277_JUSTAS]”: the entries for the “folding stability dG unfold” value in data set [1], in data set [2] and in data set [3] were 2.85 ± 0.3 kcal/mol, 3.64 ± 0.13 kcal/mol and 2.64 ± 0.12 kcal/mol, respectively.

For the sequence “SAGGSAGGSMVKTFPESEPGERVTRELILTPDSIEIVETVVKTDPATGKPVEEVLLRRSTLPLSAGGSAGGS [r12_70_JUSTAS]”, the “folding stability dG unfold” value in data set [1] is -0.353 ± 0.29 kcal/mol; in data set [2], -0.315 ± 0.41 kcal/mol; in data set [3], -0.747 ± 0.4 kcal/mol.

With “SAGGSAGGSMVKVEVTTTYDPSSNKTTVTTTTTLTEGGGTVLGTKTTTTTTTISPTTPVTSVTSAGGSAGGS [r12_254_JUSTAS]”, the “folding stability dG unfold” value in data set [1] was 0.955 ± 0.042 kcal/mol; in data set [2], 1.17 ± 0.015 kcal/mol; in data set [3], 0.604 ± 0.031 kcal/mol.

On to “SAGGSAGGSMVYKVTVYIPESGETREFVDPGSEEEIKARVKELFPDPNVKVEITPIEASPELLSAGGSAGGS [r12_92_JUSTAS]”, for which the “folding stability dG unfold” value was determined as 1.82 ± 0.045 kcal/mol in data set [1], 1.51 ± 0.051 kcal/mol in data set [2] and 2.11 ± 0.042 kcal/mol in data set [3].

Regarding “SAGGSAGGSMWIVRIEYENPDNGKTYTIPIFVPPEDAEEIAKEIAEQLPGIKDIKVEIYPLNDSAGGSAGGS [r12_757_TrROS]”, the results for the “folding stability dG unfold” value in data set [1], in data set [2] and in data set [3] were 2.03 ± 0.16 kcal/mol, 2.22 ± 0.079 kcal/mol and 1.52 ± 0.064 kcal/mol, respectively.

Take “SAGGSAGGSNKKKKTIMFTIKLDVPEGTPTAEEIADELKELSPNVEIDNIMFTPNEVYIMIKVSAGGSAGGS [r12_454_TrROS]”: the “folding stability dG unfold” value in data set [1] worked out at 1.61 ± 0.18 kcal/mol; in data set [2] it was 1.84 ± 0.062 kcal/mol; in data set [3], 1.16 ± 0.077 kcal/mol.

As to “SAGGSAGGSNKPVYFRAKIRNPDGKPIGEIEIPAKFDSLEDARSFAENLAKDLPGYKVEIELVSAGGSAGGS [r20_201_TrROS]”, the “folding stability dG unfold” value in data set [1] is 1.77 ± 0.081 kcal/mol; in data set [2], 1.38 ± 0.084 kcal/mol; in data set [3], 2.061 ± 0.012 kcal/mol.

“SAGGSAGGSNLEEFLAKLPPDVEVVVDPETGTVLVRFPKTGTVAVFRVDAAEGKVELVEVKPVSAGGSAGGS [r12_82_TrMRF]”: the results for the “folding stability dG unfold” value in data set [1], in data set [2] and in data set [3] were 3.77 ± 0.073 kcal/mol, 3.72 ± 0.049 kcal/mol and 3.88 ± 0.11 kcal/mol, respectively.

In the case of “SAGGSAGGSNTITVFMKVDDPEDALDEISEEIRDLFPPGIEVEIQPEQNEDKRGWVQVTIEFKSAGGSAGGS [r20_122_TrROS]”, the “folding stability dG unfold” value amounted to 1.02 ± 0.2 kcal/mol in data set [1], 1.15 ± 0.33 kcal/mol in data set [2] and 1.04 ± 0.063 kcal/mol in data set [3].
